Experimental data as given in patent publication US20240238441A1.

How the values were obtained:
[1] = target: Coatomer complex of HEK293T cells (Homo sapiens (Human)) (UniProt P53621)
[2] = target: Coatomer complex of HEK293T cells (Homo sapiens (Human)) (UniProt P53621); remark: listed apart in the source

Wnt7a expression per ug of total protein, EV Fraction (tangential flow filtration) (per ug of total protein) [1]: 0.13
Selection pattern Distribution (%), EV Fraction [2]: 83.4%
B1: Wnt7a-HA (ligand)
chain: LGASIICNKIPGLAPRQRAICQSRPDAIIVIGEGSQMGLDECQFQFRNGRWNCSALGERTVFGKELKVGSREAAFTYAIIAAGVAHAITAACTQGNLSDCGCDKEKQGQYHRDEGWKWGGCSADIRYGIGFAKVFVDAREIKQNARTLMNLHNNEAGRKILEENMKLECKCHGVSGSCTTKTCWTTLPQFRELGYVLKDKYNEAVHVEPVRASRNKRPTFLKIKKPLSYRKPMDTDLVYIEKSPNYCEEDPVTGSVGTQGRACNKTAPQASGCDLMCCGRGYNTHQYARVWQCNCKFHWCCYVKCNTCSERTEMYTCKYPYDVPDYA
